# Results reported in patent US7964369 (Stanford University, dated 2011).
# B1: clone 6A-36 (98% identical to human FLJ20113, OTUBAIN-1) (enzyme, mouse, UniProt Q7TQI3 97-271, looked up)
# chain: GFSHLEALLDDSKELQRFKAVSAKSKEDLVSQGFTEFTIEDFHNTFMDLIEQVEKQTSVADLLASFNDQSTSDYLVVYLRLLTSGYLQRESKFFEHFIEGGRTVKEFCQQEVEPMCKESDHIHIIALAQALSVSIQVEYMDRGEGGTTNPHVFPEGSEPKVYLLYRPGHYDILYK
# notes: Partial clone of mouse otubain-1; also called 525 bp insert; 525 bp cDNA fragment; not shown: myristoylation signal of the pMyr plasmid
# Target: T1, SOS vector alone (hSOS without GRAIL) (human, UniProt Q07889 1-1066)
# T1 construct: Negative control bait of the yeast two-hybrid screen
# T1 sequence (looked up): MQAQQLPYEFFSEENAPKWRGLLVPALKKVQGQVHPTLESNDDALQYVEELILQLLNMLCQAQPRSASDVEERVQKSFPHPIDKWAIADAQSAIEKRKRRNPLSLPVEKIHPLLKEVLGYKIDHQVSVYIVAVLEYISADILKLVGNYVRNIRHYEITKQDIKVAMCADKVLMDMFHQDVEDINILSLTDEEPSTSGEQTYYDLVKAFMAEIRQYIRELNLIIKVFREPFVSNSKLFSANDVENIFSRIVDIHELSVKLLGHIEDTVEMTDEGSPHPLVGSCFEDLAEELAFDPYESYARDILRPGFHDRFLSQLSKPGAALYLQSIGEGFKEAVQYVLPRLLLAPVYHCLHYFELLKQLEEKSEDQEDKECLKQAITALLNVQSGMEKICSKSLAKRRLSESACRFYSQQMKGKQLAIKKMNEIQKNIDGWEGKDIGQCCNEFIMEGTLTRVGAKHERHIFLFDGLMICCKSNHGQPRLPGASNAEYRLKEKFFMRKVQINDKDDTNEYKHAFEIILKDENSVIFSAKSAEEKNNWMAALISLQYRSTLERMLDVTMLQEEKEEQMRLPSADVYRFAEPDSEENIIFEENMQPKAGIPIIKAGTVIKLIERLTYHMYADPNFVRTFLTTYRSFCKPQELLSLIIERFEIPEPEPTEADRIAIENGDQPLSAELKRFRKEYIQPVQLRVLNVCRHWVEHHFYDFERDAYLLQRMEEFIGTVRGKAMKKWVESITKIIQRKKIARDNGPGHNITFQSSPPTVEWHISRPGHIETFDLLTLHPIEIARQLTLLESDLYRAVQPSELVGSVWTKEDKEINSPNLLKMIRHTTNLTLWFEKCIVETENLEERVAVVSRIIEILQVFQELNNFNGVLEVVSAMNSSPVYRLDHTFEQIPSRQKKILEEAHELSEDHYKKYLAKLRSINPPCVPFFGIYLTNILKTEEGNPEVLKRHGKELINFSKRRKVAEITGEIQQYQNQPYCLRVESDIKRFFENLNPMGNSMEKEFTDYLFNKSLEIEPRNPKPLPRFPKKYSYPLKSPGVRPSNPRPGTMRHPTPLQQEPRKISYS
# Experiment: yeast two-hybrid (CytoTrap), secondary screen, growth on galactose at 37 C
# Procedure: Table I: A mouse liver library cloned into pMyr vector was purchased from Stratagene (La Jolla, CA). The C-terminal half of GRAIL, starting at F225 was PCR amplified, cloned into the pSOS vector, and used as bait. Yeast competent cells were co-transformed with either the bait and library or control vectors as described in the CytoTrap instruction manual (Stratagene). More than 5 x 10^5 clones were screened. Colonies displaying growth on galactose but not glucose at 37° C. were considered to be putative positives and were evaluated in a secondary screen. Colonies growing in the secondary screen on galactose at 37° C. and in the presence of the GRAIL-SOS bait vector, but not the SOS vector alone, were considered true interactors and sequenced.
# Yeast and bacterial two-hybrid analysis. A mouse liver library cloned into pMyr vector was purchased from Stratagene (La Jolla, Calif.). The C-terminal half of Grail, starting at F225, was PCR amplified, cloned into the pSOS vector, and used as bait. Yeast competent cells were co-transformed with either the bait and library or control vectors as described in the CytoTrap instruction manual (Stratagene). More than 5 ×10^5 clones were screened. Colonies displaying growth on galactose but not glucose at 37° C. were considered to be putative positives and were used on a secondary screen. […]
binder,measurement,value
B1,binding result,no binding
